According to article PMC10567788, “Asymmetric gating of a human hetero-pentameric glycine receptor” (Nature Communications, 2023):

Tests used:
[1] = molecular target: the molecule itself; assay: cryo-EM structure; α1emβem GlyR co-expressed and co-purified through the PA tag on βem; single-particle cryo-EM in 0.06% digitonin, 20 mM Tris pH 8.0, 200 mM NaCl; apo and with 2 mM glycine (states apo, gly-1 open, gly-2 expanded open, gly-3 desensitized)
[2] = molecular target: human glycine receptor β subunit, cryo-EM construct βem (human); assay: as above
human glycine receptor β subunit, cryo-EM construct βem (human), sequence (P48167 whole entry): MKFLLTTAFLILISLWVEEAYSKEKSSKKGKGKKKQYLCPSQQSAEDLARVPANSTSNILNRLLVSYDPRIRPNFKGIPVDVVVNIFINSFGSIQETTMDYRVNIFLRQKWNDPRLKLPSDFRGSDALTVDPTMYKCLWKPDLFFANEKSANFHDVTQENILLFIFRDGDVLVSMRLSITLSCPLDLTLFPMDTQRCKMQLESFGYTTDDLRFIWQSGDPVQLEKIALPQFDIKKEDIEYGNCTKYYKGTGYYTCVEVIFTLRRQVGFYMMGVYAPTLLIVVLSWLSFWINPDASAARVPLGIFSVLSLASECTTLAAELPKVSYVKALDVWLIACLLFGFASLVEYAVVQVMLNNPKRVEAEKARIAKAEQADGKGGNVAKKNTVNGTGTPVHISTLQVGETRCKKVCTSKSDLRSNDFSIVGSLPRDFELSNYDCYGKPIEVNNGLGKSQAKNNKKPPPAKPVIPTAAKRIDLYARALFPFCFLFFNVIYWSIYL

B1: human glycine receptor α1 subunit, cryo-EM construct α1em (receptor)
chain: ARSAPKPMSPSDFLDKLMGRTSGYDARIRPNFKGPPVNVSCNIFINSFGSIAETTMDYRVNIFLRQQWNDPRLAYNEYPDDSLDLDPSMLDSIWKPDLFFANEKGAHFHEITTDNKLLRISRNGNVLYSIRITLTLACPMDLKNFPMDVQTCIMQLESFGYTMNDLIFEWQEQGAVQVADGLTLPQFILKEEKDLRYCTKHYNTGKFTCIEARFHLERQMGYYLIQMYIPSLLIVILSWISFWINMDAAPARVGLGITTVLTMTTQSSGSRASLPKVSYVKAIDIWMAVCLLFVFSALLEYAAVNFVSRQHKELLGSSGEEMRKLFIQRAKKIDKISRIGFPMAFLIFNMFYWIIYKIVRREDVHNQ
notes: human glycine receptor α1, NCBI NP_001139512.1, the part before the M3/M4 loop (residues up to L315); linker that replaces the M3/M4 loop residues R316-P381; human glycine receptor α1, NCBI NP_001139512.1, the part after the replaced M3/M4 loop (E382 to the C-terminal Q429); Four copies stand in each α1emβem pentamer; also called GlyR α1; α subunit; source: HEK293S GnTI- cells, BacMam baculovirus …
**Q.** Which results are given for B1?
**A.** binding result [1]: binds; stoichiometry N (α1 subunits per β subunit) [2]: 4
